Assay results as given in patent US20130273053A1 (UNIVERSITY OF LEICESTER, published 2013).

Molecular target: T1, human MASP-3 (human)
T1 construct: also called MASP-3 antigen
T1 chain: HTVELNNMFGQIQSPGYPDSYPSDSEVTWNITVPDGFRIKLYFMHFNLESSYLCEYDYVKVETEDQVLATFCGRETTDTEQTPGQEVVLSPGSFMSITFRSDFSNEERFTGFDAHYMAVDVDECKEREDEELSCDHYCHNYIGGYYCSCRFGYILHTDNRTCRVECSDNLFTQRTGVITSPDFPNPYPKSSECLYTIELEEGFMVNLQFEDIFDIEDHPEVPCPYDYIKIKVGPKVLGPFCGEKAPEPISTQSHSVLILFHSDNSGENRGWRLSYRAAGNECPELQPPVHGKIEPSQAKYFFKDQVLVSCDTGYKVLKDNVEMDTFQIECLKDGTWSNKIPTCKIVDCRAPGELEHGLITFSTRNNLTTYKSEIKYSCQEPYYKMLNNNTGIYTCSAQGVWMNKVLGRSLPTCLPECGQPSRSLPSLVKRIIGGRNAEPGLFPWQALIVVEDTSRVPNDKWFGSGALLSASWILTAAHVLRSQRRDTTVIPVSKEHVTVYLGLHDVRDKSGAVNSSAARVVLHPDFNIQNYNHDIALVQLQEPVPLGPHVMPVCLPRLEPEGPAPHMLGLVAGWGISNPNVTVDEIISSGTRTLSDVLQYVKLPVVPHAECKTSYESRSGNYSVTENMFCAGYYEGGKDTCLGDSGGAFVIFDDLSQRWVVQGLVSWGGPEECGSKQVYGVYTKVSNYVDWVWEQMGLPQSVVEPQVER
Assay: saturation binding, DTLacO cells stained with fluorescent-labeled soluble antigen
From the text: Recombinant antibodies were generated by cloning PCR-amplified V regions into a vector that supported expression of human IgG1 in 293F cells (Yabuki et al., PLoS ONE, 7(4):e36032 (2012)).

B1: MASP-3 specific clone M3J5 (antibody, IgM, V domains shown)
VH: AVTLDESGGGLQTPGGGLSLVCKASGFTFSSYAMGWMRQAPGKGLEYVAGIRSDGSFTLYATAVKGRATISRDNGQSTVRLQLNNLRAEDTATYFCTRSGNVGDIDAWGHGTEVIVSS
VL: ALTQPASVSANPGETVKITCSGGYSGYAGSYYYGWYQQKAPGSAPVTLIYYNNKRPSDIPSRFSGSLSGSTNTLTITGVRADDEAVYFCGSADNSGAAFGAGTTLTVL
notes: Chicken V regions; also called Clone 5; DTLacO clone M3J5
Question: For B1, which Kd is on record?
Answer: ~31 nM
